Results as given in the supplement of paper PMC9112550, “Optimization of the antimicrobial peptide Bac7 by deep mutational scanning” (BMC Biology, 2022).

Test system: Escherichia coli TOP10
Assay: shrunken log2 fold change of peptide-encoding DNA abundance (4.5 h post-induction vs induction); higher = less antimicrobial activity (less host growth inhibition)
Conditions: time post-induction: 4.5 h; library: site-saturation at positions 5, 18, 19, 20
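Note: peptides expressed intracellularly from a pBAD plasmid library in pooled LB shake-flask culture, induced with 0.3% L-arabinose, DNA abundance read by NGS, three biological replicates, DESeq2 with apeglm shrinkage.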

Sequence	shrunken log2 fold change
RRIRSRPPRLPRPRPRPLHPPRP	0.578
RRIRSRPPRLPRPRPRPLISPRP	-0.173
RRIRSRPPRLPRPRPRPLLCPRP	-0.039
RRIRSRPPRLPRPRPRPLLGPRP	0.0218
RRIRSRPPRLPRPRPRPLLIPRP	-0.0597
RRIRSRPPRLPRPRPRPLMMPRP	-0.0355
RRIRSRPPRLPRPRPRPLNLPRP	-0.539
RRIRSRPPRLPRPRPRPLNNPRP	-0.124
RRIRSRPPRLPRPRPRPLPYPRP	-0.25
RRIRSRPPRLPRPRPRPLREPRP	0.369
RRIRSRPPRLPRPRPRPLRYPRP	0.166
RRIRSRPPRLPRPRPRPLSPPRP	0.0487
RRIRSRPPRLPRPRPRPLTNPRP	-0.101
RRIRSRPPRLPRPRPRPLYCPRP	-0.523
RRIRSRPPRLPRPRPRPLYQPRP	-0.339
RRIRSRPPRLPRPRPRPMCIPRP	-0.0138
RRIRSRPPRLPRPRPRPMGKPRP	-0.00865
RRIRSRPPRLPRPRPRPMHLPRP	-0.118
RRIRSRPPRLPRPRPRPMKAPRP	-0.00133
RRIRSRPPRLPRPRPRPMKHPRP	-0.212
RRIRSRPPRLPRPRPRPMNMPRP	-0.118
RRIRSRPPRLPRPRPRPMNVPRP	-0.0106
RRIRSRPPRLPRPRPRPMPAPRP	0.26
RRIRSRPPRLPRPRPRPMQEPRP	0.169
RRIRSRPPRLPRPRPRPMRQPRP	0.728

Sequence	shrunken log2 fold change
RRIRSRPPRLPRPRPRPMRTPRP	0.654
RRIRSRPPRLPRPRPRPMRWPRP	0.664
RRIRSRPPRLPRPRPRPMTIPRP	-0.0727
RRIRSRPPRLPRPRPRPMTNPRP	-0.309
RRIRSRPPRLPRPRPRPMTQPRP	-0.116
RRIRSRPPRLPRPRPRPMVKPRP	-0.0162
RRIRSRPPRLPRPRPRPMVNPRP	0.00321
RRIRSRPPRLPRPRPRPMYPPRP	-0.124
RRIRSRPPRLPRPRPRPNDVPRP	-0.134
RRIRSRPPRLPRPRPRPNGDPRP	-0.0155
RRIRSRPPRLPRPRPRPNHDPRP	-0.69
RRIRSRPPRLPRPRPRPNHPPRP	-0.0712
RRIRSRPPRLPRPRPRPNIAPRP	0.0275
RRIRSRPPRLPRPRPRPNIEPRP	-0.264
RRIRSRPPRLPRPRPRPNIGPRP	-0.283
RRIRSRPPRLPRPRPRPNIRPRP	0.0389
RRIRSRPPRLPRPRPRPNLIPRP	-0.74
RRIRSRPPRLPRPRPRPNNDPRP	-0.503
RRIRSRPPRLPRPRPRPNRVPRP	-0.048
RRIRSRPPRLPRPRPRPNSQPRP	-0.118
RRIRSRPPRLPRPRPRPNTLPRP	-0.373
RRIRSRPPRLPRPRPRPNVFPRP	-0.075
RRIRSRPPRLPRPRPRPNVMPRP	-0.204
RRIRSRPPRLPRPRPRPNYHPRP	-0.742
RRIRSRPPRLPRPRPRPPACPRP	0.185

Sequence	shrunken log2 fold change
RRIRSRPPRLPRPRPRPPEFPRP	-0.119
RRIRSRPPRLPRPRPRPPFVPRP	0.148
RRIRSRPPRLPRPRPRPPGDPRP	0.344
RRIRSRPPRLPRPRPRPPHVPRP	0.113
RRIRSRPPRLPRPRPRPPIQPRP	0.0395
RRIRSRPPRLPRPRPRPPLPPRP	0.688
RRIRSRPPRLPRPRPRPPMLPRP	0.0967
RRIRSRPPRLPRPRPRPPNRPRP	0.238
RRIRSRPPRLPRPRPRPPNWPRP	0.504
RRIRSRPPRLPRPRPRPPQDPRP	0.264
RRIRSRPPRLPRPRPRPPQTPRP	0.365
RRIRSRPPRLPRPRPRPPSPPRP	0.376
RRIRSRPPRLPRPRPRPPTAPRP	0.447
RRIRSRPPRLPRPRPRPPTYPRP	-0.243
RRIRSRPPRLPRPRPRPPWEPRP	0.198
RRIRSRPPRLPRPRPRPPWFPRP	0.238
RRIRSRPPRLPRPRPRPPWMPRP	0.167
RRIRSRPPRLPRPRPRPPWPPRP	0.51
RRIRSRPPRLPRPRPRPPYQPRP	0.144
RRIRSRPPRLPRPRPRPQATPRP	-0.107
RRIRSRPPRLPRPRPRPQCQPRP	-0.146
RRIRSRPPRLPRPRPRPQDTPRP	-0.265
RRIRSRPPRLPRPRPRPQHMPRP	-0.336
RRIRSRPPRLPRPRPRPQHVPRP	-0.17
RRIRSRPPRLPRPRPRPQMDPRP	-0.0665

Sequence	shrunken log2 fold change
RRIRSRPPRLPRPRPRPQNGPRP	-0.535
RRIRSRPPRLPRPRPRPQQGPRP	0.162
RRIRSRPPRLPRPRPRPQRVPRP	-0.00684
RRIRSRPPRLPRPRPRPQRYPRP	-0.167
RRIRSRPPRLPRPRPRPQTGPRP	0.0318
RRIRSRPPRLPRPRPRPQVDPRP	-0.296
RRIRSRPPRLPRPRPRPQVVPRP	-0.144
RRIRSRPPRLPRPRPRPQWYPRP	-0.73
RRIRSRPPRLPRPRPRPQYRPRP	-0.234
RRIRSRPPRLPRPRPRPRCAPRP	0.509
RRIRSRPPRLPRPRPRPRCDPRP	0.144
RRIRSRPPRLPRPRPRPRCSPRP	0.0579
RRIRSRPPRLPRPRPRPRDKPRP	0.0811
RRIRSRPPRLPRPRPRPRELPRP	0.0421
RRIRSRPPRLPRPRPRPREMPRP	0.159
RRIRSRPPRLPRPRPRPRENPRP	0.468
RRIRSRPPRLPRPRPRPRGKPRP	0.0832
RRIRSRPPRLPRPRPRPRGTPRP	0.407
RRIRSRPPRLPRPRPRPRICPRP	-0.191
RRIRSRPPRLPRPRPRPRIRPRP	-0.0466
RRIRSRPPRLPRPRPRPRLFPRP	0.376
RRIRSRPPRLPRPRPRPRMEPRP	0.0338
RRIRSRPPRLPRPRPRPRNEPRP	0.00717
RRIRSRPPRLPRPRPRPRNFPRP	0.146
RRIRSRPPRLPRPRPRPRNHPRP	-0.0799

Sequence	shrunken log2 fold change
RRIRSRPPRLPRPRPRPRNLPRP	-0.322
RRIRSRPPRLPRPRPRPRNPPRP	0.103
RRIRSRPPRLPRPRPRPRPLPRP	0.171
RRIRSRPPRLPRPRPRPRQMPRP	0.38
RRIRSRPPRLPRPRPRPRREPRP	0.416
RRIRSRPPRLPRPRPRPRRGPRP	0.538
RRIRSRPPRLPRPRPRPRRTPRP	0.183
RRIRSRPPRLPRPRPRPRSEPRP	0.0656
RRIRSRPPRLPRPRPRPRSYPRP	-0.066
RRIRSRPPRLPRPRPRPRTIPRP	-0.141
RRIRSRPPRLPRPRPRPRYAPRP	-0.0842
RRIRSRPPRLPRPRPRPSAGPRP	0.191
RRIRSRPPRLPRPRPRPSDCPRP	-0.79
RRIRSRPPRLPRPRPRPSDFPRP	-0.536
RRIRSRPPRLPRPRPRPSESPRP	-0.198
RRIRSRPPRLPRPRPRPSFAPRP	0.0497
RRIRSRPPRLPRPRPRPSGAPRP	0.12
RRIRSRPPRLPRPRPRPSHGPRP	-0.19
RRIRSRPPRLPRPRPRPSHIPRP	-0.849
RRIRSRPPRLPRPRPRPSHSPRP	-0.706
RRIRSRPPRLPRPRPRPSMFPRP	-0.18
RRIRSRPPRLPRPRPRPSMHPRP	0.402
RRIRSRPPRLPRPRPRPSNQPRP	-0.242
RRIRSRPPRLPRPRPRPSPIPRP	-0.467
RRIRSRPPRLPRPRPRPSPLPRP	-0.324

Sequence	shrunken log2 fold change
RRIRSRPPRLPRPRPRPSTAPRP	-0.0171
RRIRSRPPRLPRPRPRPSTHPRP	-0.353
RRIRSRPPRLPRPRPRPSTSPRP	-0.455
RRIRSRPPRLPRPRPRPSVFPRP	-0.23
RRIRSRPPRLPRPRPRPSVPPRP	-0.634
RRIRSRPPRLPRPRPRPSWFPRP	-0.268
RRIRSRPPRLPRPRPRPSWRPRP	0.0852
RRIRSRPPRLPRPRPRPSYPPRP	-0.736
RRIRSRPPRLPRPRPRPTAHPRP	0.284
RRIRSRPPRLPRPRPRPTAMPRP	0.4
RRIRSRPPRLPRPRPRPTCIPRP	0.0869
RRIRSRPPRLPRPRPRPTCMPRP	0.0286
RRIRSRPPRLPRPRPRPTDSPRP	-0.0593
RRIRSRPPRLPRPRPRPTEKPRP	0.0802
RRIRSRPPRLPRPRPRPTGIPRP	-0.0906
RRIRSRPPRLPRPRPRPTHEPRP	-0.0435
RRIRSRPPRLPRPRPRPTHYPRP	-0.125
RRIRSRPPRLPRPRPRPTIEPRP	-0.0439
RRIRSRPPRLPRPRPRPTKWPRP	-0.0872
RRIRSRPPRLPRPRPRPTMPPRP	0.0349
RRIRSRPPRLPRPRPRPTNSPRP	-0.24
RRIRSRPPRLPRPRPRPTQFPRP	0.212
RRIRSRPPRLPRPRPRPTTCPRP	0.0283
RRIRSRPPRLPRPRPRPTTNPRP	0.00407
RRIRSRPPRLPRPRPRPTTPPRP	0.502
